Experimental findings from the supplement of paper PMC9428881 are described below.

± gives the standard error.

This data set can be described thus: background-corrected fluorescence of 3'-dye-labeled ssDNA relative to brightest sequence (3'-GCGCG) (fraction); higher = brighter dye fluorescence (less quenching). A digest of the protocol:
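Light-directed phosphoramidite synthesis on glass slides produced single-stranded DNA carrying a 3' Cy3 or Cy5 dye next to each of 1024 permuted pentamers. After a 2 h acetonitrile wash at r.t., arrays were scanned at 532 or 635 nm both before and after overnight deprotection in ethylenediamine/ethanol. Every value is the mean of 10 features per array over at least 3 syntheses. Fluorescence had unlabeled-oligo background subtracted and was scaled to the brightest sequence.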

Turning to “TTTTTTGATGCTCATGATGATTTTTTTTTTTTTTTCAGCC [CCGAC]”, the background-corrected fluorescence was 0.462 ± 0.011 (dye: Cy3 (3' terminal)) and 0.321 ± 0.042 (dye: Cy5 (3' terminal)).

On to “TTTTTTGATGCTCATGATGCTTTTTTTTTTTTTTTCAGCA [ACGAC]”, for which the background-corrected fluorescence (dye: Cy3 (3' terminal)) was 0.514 ± 0.019 and the background-corrected fluorescence (dye: Cy5 (3' terminal)) is 0.448 ± 0.027.

For “TTTTTTGATGCTCATGCGCATTTTTTTTTTTTTTTCAGAT [TAGAC]”, the background-corrected fluorescence (dye: Cy3 (3' terminal)) amounted to 0.576 ± 0.018 and the background-corrected fluorescence (dye: Cy5 (3' terminal)) came to 0.469 ± 0.021.

As to “TTTTTTGATGCTCATGCTCATTTTTTTTTTTTTTTCAGAG [GAGAC]”, the background-corrected fluorescence is, setting by setting: (dye: Cy3 (3' terminal)) 0.595 ± 0.022; (dye: Cy5 (3' terminal)) 0.462 ± 0.03.

As to “TTTTTTGATGCTCATGCTGATTTTTTTTTTTTTTTCAGAC”, the background-corrected fluorescence stood at 0.451 ± 0.024 (dye: Cy3 (3' terminal)) and 0.372 ± 0.017 (dye: Cy5 (3' terminal)).

Regarding “TTTTTTGATGCTCATGCTGCTTTTTTTTTTTTTTTCAGAA [AAGAC]”, the background-corrected fluorescence is, setting by setting: (dye: Cy3 (3' terminal)) 0.609 ± 0.022; (dye: Cy5 (3' terminal)) 0.471 ± 0.027.

In the case of “TTTTTTGATGCTGAGCAGCATTTTTTTTTTTTTTTCACTT”, the background-corrected fluorescence is, setting by setting: (dye: Cy3 (3' terminal)) 0.498 ± 0.016; (dye: Cy5 (3' terminal)) 0.351 ± 0.022.

In the case of “TTTTTTGATGCTGAGCATCATTTTTTTTTTTTTTTCACTG [GTCAC]”, the background-corrected fluorescence came to 0.487 ± 0.028 (dye: Cy3 (3' terminal)) and 0.398 ± 0.035 (dye: Cy5 (3' terminal)).

Take “TTTTTTGATGCTGAGCATGATTTTTTTTTTTTTTTCACTC [CTCAC]”: the background-corrected fluorescence by setting is: (dye: Cy3 (3' terminal)) 0.399 ± 0.017; (dye: Cy5 (3' terminal)) 0.296 ± 0.022.

“TTTTTTGATGCTGAGCATGCTTTTTTTTTTTTTTTCACTA [ATCAC]”: the background-corrected fluorescence runs as follows: (dye: Cy3 (3' terminal)) 0.471 ± 0.014; (dye: Cy5 (3' terminal)) 0.352 ± 0.025.

In the case of “TTTTTTGATGCTGATCAGCATTTTTTTTTTTTTTTCACGT [TGCAC]”, the background-corrected fluorescence is, setting by setting: (dye: Cy3 (3' terminal)) 0.588 ± 0.034; (dye: Cy5 (3' terminal)) 0.473 ± 0.03.

“TTTTTTGATGCTGATCATCATTTTTTTTTTTTTTTCACGG [GGCAC]” returned a background-corrected fluorescence (dye: Cy3 (3' terminal)) of 0.584 ± 0.023 and a background-corrected fluorescence (dye: Cy5 (3' terminal)) of 0.525 ± 0.03.

Take “TTTTTTGATGCTGATCATGATTTTTTTTTTTTTTTCACGC [CGCAC]”: the background-corrected fluorescence amounted to 0.536 ± 0.021 (dye: Cy3 (3' terminal)) and 0.438 ± 0.036 (dye: Cy5 (3' terminal)).

The sequence “TTTTTTGATGCTGATCATGCTTTTTTTTTTTTTTTCACGA [AGCAC]” gave a background-corrected fluorescence (dye: Cy3 (3' terminal)) of 0.594 ± 0.013 and a background-corrected fluorescence (dye: Cy5 (3' terminal)) of 0.471 ± 0.023.

On to “TTTTTTGATGCTGATGAGCATTTTTTTTTTTTTTTCACCT [TCCAC]”, for which the background-corrected fluorescence is, setting by setting: (dye: Cy3 (3' terminal)) 0.457 ± 0.021; (dye: Cy5 (3' terminal)) 0.326 ± 0.03.

Sequence “TTTTTTGATGCTGATGATCATTTTTTTTTTTTTTTCACCG [GCCAC]” came in with a background-corrected fluorescence (dye: Cy3 (3' terminal)) of 0.505 ± 0.024 and a background-corrected fluorescence (dye: Cy5 (3' terminal)) of 0.423 ± 0.058.

Turning to “TTTTTTGATGCTGATGATGATTTTTTTTTTTTTTTCACCC [CCCAC]”, the background-corrected fluorescence is, setting by setting: (dye: Cy3 (3' terminal)) 0.37 ± 0.028; (dye: Cy5 (3' terminal)) 0.271 ± 0.019.

For the sequence “TTTTTTGATGCTGATGATGCTTTTTTTTTTTTTTTCACCA [ACCAC]”, the background-corrected fluorescence by setting is: (dye: Cy3 (3' terminal)) 0.493 ± 0.019; (dye: Cy5 (3' terminal)) 0.375 ± 0.043.

Consider “TTTTTTGATGCTGATGCGCATTTTTTTTTTTTTTTCACAT [TACAC]”, for which the background-corrected fluorescence is, setting by setting: (dye: Cy3 (3' terminal)) 0.521 ± 0.02; (dye: Cy5 (3' terminal)) 0.368 ± 0.016.

With “TTTTTTGATGCTGATGCTCATTTTTTTTTTTTTTTCACAG [GACAC]”, the background-corrected fluorescence is, setting by setting: (dye: Cy3 (3' terminal)) 0.481 ± 0.031; (dye: Cy5 (3' terminal)) 0.384 ± 0.019.

For the sequence “TTTTTTGATGCTGATGCTGATTTTTTTTTTTTTTTCACAC”, the background-corrected fluorescence by setting is: (dye: Cy3 (3' terminal)) 0.392 ± 0.006; (dye: Cy5 (3' terminal)) 0.311 ± 0.024.

Take “TTTTTTGATGCTGATGCTGCTTTTTTTTTTTTTTTCACAA [AACAC]”: the background-corrected fluorescence runs as follows: (dye: Cy3 (3' terminal)) 0.562 ± 0.022; (dye: Cy5 (3' terminal)) 0.411 ± 0.021.

As to “TTTTTTGATGCTGCGCAGCATTTTTTTTTTTTTTTCAATT [TTAAC]”, the background-corrected fluorescence by setting is: (dye: Cy3 (3' terminal)) 0.538 ± 0.027; (dye: Cy5 (3' terminal)) 0.385 ± 0.029.

With “TTTTTTGATGCTGCGCATCATTTTTTTTTTTTTTTCAATG [GTAAC]”, the background-corrected fluorescence worked out at 0.53 ± 0.029 (dye: Cy3 (3' terminal)) and 0.364 ± 0.026 (dye: Cy5 (3' terminal)).

“TTTTTTGATGCTGCGCATGATTTTTTTTTTTTTTTCAATC [CTAAC]”: the background-corrected fluorescence is, setting by setting: (dye: Cy3 (3' terminal)) 0.421 ± 0.026; (dye: Cy5 (3' terminal)) 0.284 ± 0.013.

“TTTTTTGATGCTGCGCATGCTTTTTTTTTTTTTTTCAATA [ATAAC]”: the background-corrected fluorescence by setting is: (dye: Cy3 (3' terminal)) 0.574 ± 0.023; (dye: Cy5 (3' terminal)) 0.422 ± 0.042.

Consider “TTTTTTGATGCTGCTCAGCATTTTTTTTTTTTTTTCAAGT [TGAAC]”, for which the background-corrected fluorescence is, setting by setting: (dye: Cy3 (3' terminal)) 0.629 ± 0.0081; (dye: Cy5 (3' terminal)) 0.478 ± 0.039.

Consider “TTTTTTGATGCTGCTCATCATTTTTTTTTTTTTTTCAAGG [GGAAC]”, for which the background-corrected fluorescence reads like this: (dye: Cy3 (3' terminal)) 0.579 ± 0.028; (dye: Cy5 (3' terminal)) 0.489 ± 0.029.

As to “TTTTTTGATGCTGCTCATGATTTTTTTTTTTTTTTCAAGC [CGAAC]”, the background-corrected fluorescence reads like this: (dye: Cy3 (3' terminal)) 0.514 ± 0.024; (dye: Cy5 (3' terminal)) 0.426 ± 0.07.
